B1: mAb of B cell clone 221 (supernatant) (antibody, V domains shown)
VH: QSLEESGGDLVKPGASLTLTCTASGFSFSSSYYMCWVRQAPGKGLEWIACIYGGSTGTTYYASWAKGRFTISKTSSTTVTLQMTSLTGADTATYFCARSYNSASSGYYWDLWGPGTLVTVSS
VL: ELDLTQTPSSVEAAVGGTVTIKCQASQSIGSNLAWYQQKPGQPPKVLIYKASTLASGVPSRFKGSGSGTQFTLTISDLECADAATYYCQNNNYWSNGNHFGGGTEVVVK
notes: rabbit
B2: mAb of B cell clone 209 (supernatant) (antibody, V domains shown)
VH: SQSVEESGGDLVKPGGTLTLTCTASRIDLNNYYYISWVRQAPGKGLEWIGVVATDSSVTWYASWAKGQFTISKTSSTTVTLQMTSLTAADTATYFCARGSGAATNGVWWVMGDGMDLWGPGTLVTVSS
VL: ELVMTQTPASVSEPVGGTVTIKCQASQSISSYLSWYQQKPGQPPKRLIYKASTLASGVPSRFKGSGSGTEFTLTISGVQCADAATYYCQNNYHSGSSNGGGFAFGGGTEVEIK
notes: rabbit
B3: mAb of B cell clone 38 (supernatant) (antibody, V domains shown)
VH: EQSVEESEGGLVQPEGSLTLTCTASGFSFSNDYWICWVRQAPGKGLEWIGCGHIGSFRTTYYASWAKGRFSISKTSSTTVTLQMTSLTGADTATYFCARSPYDDGYGGFTFNLWGPGTLVTISS
VL: ELDMTQTPSSVEAAVGGTVTVKCQVSQSIGNAIAWYQQKPGQPPKLLIYKASTLASGVPSRFKGSGSGTEFTLTISDLECADAATYYCQNYYYSNTNSFGGGTEVVVK
notes: rabbit; also called B1-#38
B4: mAb of B cell clone 22 (supernatant) (antibody, V domains shown)
VH: EQSLEESGGGLVKPGASLTLTCKASGFDFSSNDYMCWVRQAPGKGLEWIGCIYGGDGHTYYATWAKGRFTISKASSTTVTLQMTSLTAADTASYFCARGYSYGDTGYADAILTLDLWGPGTLVTVSS
VL: ELDLTQTPASVEAAVGGTVTIKCQASQTIGSYLSWYQQKPGQRPKLLIYEASKLASGVPSWFKGSGSGTEFTLTISDLECADAATYYCQSNYYRAGGNYGGAFGGGTEVEIK
notes: rabbit; also called B1-#22
B5: mAb of B cell clone 27 (supernatant) (antibody, V domains shown)
VH: EQSVKESGGGLVQPEGSLTLTCTVSGFSFSGSYWICWVRQAPGKGLEWIACIYGDSIATYYPNWAKGRFTISKTSSTTVTLQMASLTGADTATYFCARDRNGGSGAYGWDLWGPGTLVTISS
VL: ELDLTQTPASVSEPVGGTVTITCQASQSISSYLSWYQQTPGQPPKLLIYKASTLASGVPSRFKGSGSGTEFTLTISDLECADAATYYCQSYYYISATVDNTFGGGTEVEIK
notes: rabbit; also called B1-#27
B6: mAb of B cell clone 56 (supernatant) (antibody, V domains shown)
VH: QSLEESGGDLVQPEGSLTLTCTASGFSFSINLYMCWVRQAPGKGLEWIACIYGNNNANTYYTTWAKGRFTISKTSPTTVTLQMTSLTGADTATYFCARDTAAYYAFSLWGPGTLVTISS
VL: ELVMTQTPSSSSAAVGGTVTIKCQASQSIGSRFAWYQQKPGQRPKLLIYEASKLPSGVPSRFKGSGSGTEFTLTISDLECADAAIYYCQCTYYESSSGGGFGGGTEVVVK
notes: rabbit; also called B1-#56
B7: mAb of B cell clone 19 (supernatant) (antibody, V domains shown)
VH: EQSVEESGGGLVKPEGSLTLTCKASGLDFSSSYWSCWVRQTPGRGLEWIGCIDVGSSGGSYYASWARGRFTVSKGSSTTVTLQMTSLTAADTATYFCASTTTNVFGYDLWGPGTLVTVSS
VL: ELDLTQTPASVSEPVGGTVTIKCQASQNIYNNLAWYQQKPGQPPKLLIYYASTLASGVPPRFSGSGSGTEYTLTISDLECDDAATYYCQNNAGIYGGYGHGFGGGTEVVVK
notes: rabbit; also called B1-#19
B8: mAb of B cell clone 7 (supernatant) (antibody, V domains shown)
VH: EQSLEESGGGLVKPGASLTVTCAVSGFSLNSYAITWVRQAPGKGLEYIGYIDTGASITDYASWAKGRFTISKTSSTTVTLEMTSLTDADTATYFCARGFSMFKLWGPGTLVTISS
VL: ELDLTQTPSSVSAAVGGTVTISCQASQSVYGNNRLAWYHQKPGQPPKRLIYLASTLDSGVPSRFKGAGSGTQFTLTISDLECDDAATYYCAGGYAGNFNAFGGGTEVEIK
notes: rabbit; also called B1-#7
B9: mAb of B cell clone 198 (supernatant) (antibody, V domains shown)
VH: QSLEESGGGLVKPEGSLTLTCTASGFDLSNNYYICWVRQAPGKGLELIACVDSDLTDSADYASWAKGRFTISKTSSTTVTLQMTSLTAADTATYFCAGSGSGYYYYYGMDLWGPGTLVTISS
VL: ELDMTQTPASVSEPVGGTVTIKCQASQSIGSYLAWYQQKPGQPPKLLAFYASTLKSGVPPRFKGSGSGTEFTLTISDLECADAATYYCQSNRLSSSDVNAFGGGTEVEIK
notes: rabbit
B10: mAb of B cell clone 203 (supernatant) (antibody, V domains shown)
VH: QSLKESEGDLVKPGASLTLTCTASGFSFSSSYWICWVRQAPGKGLEWIACIYAGSSGSTYYASWAKGRFTISKTSSTTVTLEMTSLTDADTATYFCARGFSMFKLWGPGTLVTISS
VL: ELVLTQTPSSVEAAVGGTVTIKCQASQSIGSYLAWYQQKPGQPPKLLIYKASTLSSGVSSRYKGSGSGTEFTLTISDLECDDAATYYCQYTSYSSGGAFGGGTEVVVK
notes: rabbit
B11: mAb of B cell clone 226 (supernatant) (antibody, V domains shown)
VH: QEQLVESGGGLVQPEGSLTLTCTASGFSFSSRQYISWVRRAPGKGLEWIGAIVTVNNKVHYANWAKGRFTISEASSTTVTLQMTSLTAADTATYFCARWRTFGLWGPGTLVTVSS
VL: ELVLTQTPSSKSVAVGDTVTINCQASENVYSNNYTSWFQQKPGQPPKQLLYYAAYRASGVPSRFKGSGSGTEFTLSISDVVCDDAATYYCSGHKDYSDDGSTFGGGTEVVVK
notes: rabbit
B12: mAb of B cell clone 18 (supernatant) (antibody, V domains shown)
VH: EQSVKESGGGLVKPGGTLTLTCIVSGFSLSRYAVTWVRQAPGKGPEWIGYIDTSSGNKDYANWVNGRFTISKTSSTTVTLQMTSLTAADTATYFCARGFSMFKLWGPGTLVTISS
VL: ELVMTQTPSSVSAAVGGTVTISCQASQSVYNNNNLAWYQQKPGQPPKRLIYSASTLDSGVPSRFSGSGSGTQFTLTISDLECDDAATYYCAGGYTYNINIFGGGTEVEIK
notes: rabbit; also called B1-#18
B13: mAb of B cell clone 10 (supernatant) (antibody, V domains shown)
VH: EQSVEESGGGLVKPEGSLTLTCKASGLDFSSSYWICWVRQAPGKGLEWIACIDTGSSGSTYYASWAKGRFTVSKTSSTTVSLQMTSLTAADTATYFCASTPNSLGYDLWGPGTLVTISS
VL: ELDLTQTPASVSAAVGGTVTIKCQASQNIVSNLAWYQQKPGQRPKLLIYYASTLASGVPSRFKGSGSGTEYTLTISDLECADAATYYCQNNAGIYGNYGHGFGGGTELEIK
notes: rabbit; also called B1-#10
B14: mAb of B cell clone 15 (supernatant) (antibody, V domains shown)
VH: EQSVEESGGDLVKPGASLTLTCTASGFSSSSSAYMCWVRQAPGKGLEWIACIFIGSGSDSYYATWAKGRFTISKTSSTTVTLQMTSLTAADTATYFCARNTYDWNGYIYGPCYFGLWGPGTLVTISS
VL: ELDLTQTPSSVEAAVGGTVTIKCQASQSIYNYLAWYQQKPGHSPKLLIYDVSKLASGVSSRFKGSGSGTEFTLTISDLECADAATYYCQSYYGNTVSFTFGGGTEVEIK
notes: rabbit; also called B1-#15
B15: mAb of B cell clone 25 (supernatant) (antibody, V domains shown)
VH: EQSVKESGGGLVQPEGSLTLTCKVSGIDFNYYNYYYMCWVRQAPGKGLEWIGCMSTASANIYLASWAKGRFTISEASSTTVTLQMTSLTAADTATYFCAKSHGGDGGYGVVLWGPGTLVTISS
VL: ELDLTQTPFSVSAAVGGTVTIKCQASETISNRLAWYQQKPGQPPKLLIYSASTLESGVPSRFKGSGSGTEFTLTISDLECADAATYYCQSIRSSSGIVHPNTFGGGTEVEIK
notes: rabbit; also called B1-#25
B16: mAb of B cell clone 202 (supernatant) (antibody, V domains shown)
VH: SQSLEESGGGLVKPGASLTLTCKGSGFSFNGDYYMCWVRQTPGKGLEWIGCIYAAGDDTYYATWAKGRFTISKTSSTTVTLQMTSLTAADTATYFCARDQADSYAFGLWGPGTLVTISS
VL: ELVLTQTASPVSGAVGGTVTIKCQASQNIYSNLAWYQQKPGQPPKLLIYSASKLASGVPSRFKGSGSGTEYTLTISGVQCEDAATYYCQSYYYTASADTTFGGGTEVEIK
notes: rabbit
B17: mAb of B cell clone 41 (supernatant) (antibody, V domains shown)
VH: QSVKESGGDLVKPGASLTLTCTASGFSFSSSYWICWVRQAPGKGLEWIACIYAGSSGSTYYASWAKGRFTISKTSSTTVTLQMTSLTAADTATYFCARSTSGSYGAGLGLWGPGTLVTISS
VL: ELDMTQTASPVSGAVGGTVTIKCQASQNIYNNIGWYQQKPGQPPNLLIYGPSYLASGVPSRFKGSRSGTEYTLTISDLECADAATYYCQSDDWMSISPDIVFGGGTEVEIK
notes: rabbit; also called B1-#41-1
B18: mAb of B cell clone 220 (supernatant) (antibody, V domains shown)
VH: QSVEESGGGLVQPEGSLTLTCTASGFSFSGIVYMCWVRQAPGKGLEWIACAFVGSGGSTYYATWATGRFTISKTSSTTVTLQMTSLTAADTATYFCAKSYNYNGLGLWGPGTLVTVSS
VL: ELDMTQTPASVSAAVGGTVTIKCQASQSITNALAWYQQKPGQPPKLLIYRASTLASGVSSRFKGSGSGTEFTLTISDLECADAATYYCQCSYYGSTYFGSPFGGGTEVEIK
notes: rabbit; also called B1-#220
B19: mAb of B cell clone 28 (supernatant) (antibody, V domains shown)
VH: EQSLEESGGGLVKPGASLTLTCKASGFSFSSDYDMCWVRQAPGKGLEWIGCIVTGFSGRIYYATWARGRFTFSRTSSTTLTLQMTSLTAADTATYFCARDSGNYNWDLWGPGTLVTISS
VL: ELDLTQTPTSVSAAVGGTVTIKCQASQSISDYLSWYQQKPGQPPKLLIYRASTLASGVPSRFKGSGSGTEFTLTISDLECADAATYYCQSNYYGSQGCTFGGGTEVEIK
notes: rabbit; also called B1-#28
B20: mAb of B cell clone 224 (supernatant) (antibody, V domains shown)
VH: EQSVEESGGGLVQPEGSLTLTCTASGIDFSSGAWICWVRQAPGKGLELIACIFTTSGFTYYASWAKGRFTISKTSSTTVTLQMTSLTAADTATYFCARDIYSYGMDLWGPGTLVTISS
VL: ELVLTQTPSSVSEPVGGTVTIKCQASQSISSSYLAWYQQKPGQPPKFLIYSASTLASGVPSRFKGSGSGTEFTLTISDLECADAATYYCQSTYISSSNYGAAFGGGTEVEIK
notes: rabbit
B21: mAb of B cell clone 210 (supernatant) (antibody, V domains shown)
VH: QSVEESEGRLVTPGGSLTLTCTVSGIDLSSYAMGWVRQAPGKGLEWIGVIGKSGTTYYANWAKGRFTISKTSTTVDLQIASPTTEDTATYFCARAGASRSIYYDLWGQGTLVTISS
VL: ELVLTQTPSSKSVAVGDTVTINCQASESVYGNNRCSWYQQKPGQPPKLLIYQASTLASGVPSRFSGSGSGTQFTLTISDVVCDDAATYYCAGHKGTTNDGNDFGGGTEVEIK
notes: rabbit; also called B1-#210
B22: mAb of B cell clone 196 (supernatant) (antibody, V domains shown)
VH: QEQLVESGGGLVQPEGSLTLTCTDSGFSFTKNYYMCWVRQAPGKGLEWIGCIYAGSTNTFYASWAKGRFTISKASSTTVDLKMTSLTVADTATYFCARDFVSYLNLWGPGTLVTVSS
VL: ELDMTQTPSSTSAAVGGTVTIKCQASQSVYNNNQLSWFQQKPGQPPKRLIYGASTLESGVPSRFSGSGSGTQFTLTISDLECDDAATYYCQGAVSSDYYPFGGGTEVEIK
notes: rabbit

Target: T1, human LILRB1 recombinant protein (human, UniProt Q8NHL6 24-461)
T1 construct: The ELISA method says only 'LILRB1 recombinant proteins' coated on plates; also called leukocyte immunoglobulin-like receptor subfamily B member 1
Assay: ELISA, B cell supernatant

T1 sequence (Q8NHL6 24-461 limits assumed): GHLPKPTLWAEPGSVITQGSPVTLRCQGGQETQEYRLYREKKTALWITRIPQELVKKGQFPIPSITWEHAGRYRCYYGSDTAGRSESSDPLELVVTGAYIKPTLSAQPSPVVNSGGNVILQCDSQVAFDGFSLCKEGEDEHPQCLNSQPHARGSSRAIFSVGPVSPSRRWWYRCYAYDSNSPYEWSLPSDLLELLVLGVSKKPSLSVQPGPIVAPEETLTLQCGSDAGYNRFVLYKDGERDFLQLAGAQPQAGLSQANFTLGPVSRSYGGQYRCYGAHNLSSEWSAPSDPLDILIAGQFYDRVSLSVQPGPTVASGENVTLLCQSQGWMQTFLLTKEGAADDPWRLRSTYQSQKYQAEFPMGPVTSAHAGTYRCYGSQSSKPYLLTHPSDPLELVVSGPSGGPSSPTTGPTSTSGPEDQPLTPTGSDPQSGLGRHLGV

| Binder | OD450 [OD450] |
| --- | --- |
| B1 | 1.64 |
| B2 | 2.18 |
| B3 | 2.32 |
| B4 | 1.84 |
| B5 | 2.56 |
| B6 | 2.09 |
| B7 | 2.32 |
| B8 | 2.4 |
| B9 | 2.28 |
| B10 | 1.75 |
| B11 | 2.38 |
| B12 | 2.41 |
| B13 | 2.17 |
| B14 | 2.5 |
| B15 | 2.3 |
| B16 | 1.95 |
| B17 | 2.26 |
| B18 | 2.24 |
| B19 | 2.27 |
| B20 | 2.09 |
| B21 | 1.75 |
| B22 | 2.27 |

— patent publication US12723078 (University of Texas, dated 2026)
